Assay [1] has as its target T1, human YKL-40 (chitinase-3-like protein 1) (human, UniProt P36222 22-383).
T1 construct: Antigen protein immobilized in ELISA and on the Octet AR2G sensor; also called hYKL-40; human YKL-40 antigen
Kind of assay: ELISA, purified IgG on antigen. A general note: In an ELISA, binding on a coated surface is turned into a signal by an enzyme label.

In assay [2] the target is T2, mouse YKL-40 (mouse, UniProt Q61362 30-389).
T2 construct: Antigen protein immobilized in ELISA and on the Octet AR2G sensor; also called mYKL-40; mouse YKL-40 antigen
T2 sequence (Q61362 30-389): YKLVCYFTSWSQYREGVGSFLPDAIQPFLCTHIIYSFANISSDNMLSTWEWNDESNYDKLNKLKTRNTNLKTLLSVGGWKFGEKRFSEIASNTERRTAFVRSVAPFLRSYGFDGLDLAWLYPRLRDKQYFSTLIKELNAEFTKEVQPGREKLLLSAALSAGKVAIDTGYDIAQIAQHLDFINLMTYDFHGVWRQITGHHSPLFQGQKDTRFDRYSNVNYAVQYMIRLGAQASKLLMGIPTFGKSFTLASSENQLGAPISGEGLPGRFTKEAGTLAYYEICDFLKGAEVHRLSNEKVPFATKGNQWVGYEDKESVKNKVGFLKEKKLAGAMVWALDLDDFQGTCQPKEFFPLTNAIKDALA
Kind of assay: Octet BLI, antigen immobilized on AR2G sensor. Here is the method: (§1) To reconfirm the EC₅₀ value measured by ELISA, the affinity for 4E3-F2 (M3) and 3A10-F1 (H1) was measured using an Octet instrument. Cross-binding was investigated for the two antibodies using hYKL-40 and mYKL-40. Each antigen protein was immobilized using the AR2G (Amine Reactive 2nd Generation) sensor, and the direct immobilization method of binding each antibody with different concentrations (0-1 μM) was employed.
In general terms: Biolayer interferometry detects binding as a change in optical thickness at a sensor tip.

Assay [3] deals with T1, human YKL-40 (chitinase-3-like protein …). Briefly: ELISA, IgG titrated on hYKL-40, A450nm normalized.
Assay [4] shares this target. Briefly: Octet BLI, antigen immobilized on AR2G sensor, antibody 0-1 µM; hYKL-40 on the sensor. The protocol:
as §1

Assay [5] shares this target. Briefly: ELISA, Fab protein titrated on hYKL-40 antigen, A450nm normalized.
The target in assay [6] is T2, mouse YKL-40. Briefly: ELISA, Fab protein titrated on mYKL-40 antigen, A450nm normalized.
In assay [7] the target is T2, mouse YKL-40. Kind of assay: ELISA, purified IgG on antigen.
Assay [8] has as its target T2, mouse YKL-40. Briefly: Octet BLI, antigen immobilized on AR2G sensor, antibody 0-1 µM; mYKL-40 on the sensor. Here is the method: as §1

Numbering of substitutions follows the chain as printed.

T1 sequence (P36222 22-383 limits assumed): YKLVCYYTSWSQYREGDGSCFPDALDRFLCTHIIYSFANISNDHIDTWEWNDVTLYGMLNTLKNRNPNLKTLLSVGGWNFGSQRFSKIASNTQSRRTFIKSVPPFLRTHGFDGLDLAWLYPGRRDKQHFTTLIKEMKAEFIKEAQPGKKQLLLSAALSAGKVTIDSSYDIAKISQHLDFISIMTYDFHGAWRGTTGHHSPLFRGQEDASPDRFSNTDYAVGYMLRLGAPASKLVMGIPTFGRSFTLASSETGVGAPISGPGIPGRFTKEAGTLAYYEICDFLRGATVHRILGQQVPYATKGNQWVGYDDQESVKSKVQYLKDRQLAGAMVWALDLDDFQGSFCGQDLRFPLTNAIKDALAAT

B1: 3A10-F1 (H1) human IgG antibody (antibody, V domains shown)
VH: EVQLVESGGGLVQPGGSLRLSCAASGFTFSNYAMSWVRQAPGKGLEWVSGISGSGGTTYYADSVKGRFTISRDNSKNTLYLQMNSLRAEDTAVYYCAGVGTFDVWGQGTLVTVSS
VL: DIQMTQSPSSLSASVGDRVTITCRASQTISSWLNWYQQKPGKAPKLLIYAASRLQSGVPSRFSGSGSGTDFTLTISSLQPEDFATYYCQQSYSTPLTFGQGTKVEIK
notes: The phage clone was converted to human IgG and produced in Expi293 cells; also called human YKL-40 antibody 3A10-F1 (H1)
A word on the EC50: it is the concentration needed to bring the measured effect to its halfway point. High values mean a less potent agent, low ones a more potent agent. As a reminder, the Kd is the concentration at which binding is half-saturated. The low end stands for tighter binding, the high end for weaker binding. In the case of B1, the figures for the EC50 in assay [1] and in assay [3] were 582 pM and 500 pM, respectively. Further, the binding result in the assay with mouse YKL-40 [2] is on record as “no binding (tested: 0-1 µM)”. This molecule had an equilibrium dissociation constant (Kd) in assay [4] of 50 pM.

B2: 3A10-F1 (H1) Fab (Fab, V domains shown)
VH: B1 VH
VL: B1 VL
notes: Fab from the Fab-I phage library; also called Fab protein of 3A10-F1 (H1)
In assay [5], B2 displayed an EC50 of 740 pM. In other words, the sub-nanomolar range.

B3: 4E3-F2 (M3) Fab (Fab, V domains shown)
VH: QVQLVQSGAEVKKPGSSVKVSCKASGGTFSSYDIHWVRQAPGQGLEWMGIISPYLGITIYAQKFQGRVTITADESTSTAYMELSSLRSEDTAVYYCARRYFYYQSEAFDYWGQGTLVTVSS
VL: B1 VL with T28S, S31N, W32Y, R53T, T94F
notes: Fab from the Fab-II phage library; also called Fab protein of 4E3-F2 (M3)
B3: the values for the half-maximal effective concentration (EC50) (in assay [5]; with mouse YKL-40 [6]) were 23600 pM and 4300 pM, respectively.

B4: 4E3-F2 (M3) human IgG antibody (antibody, V domains shown)
VH: B3 VH
VL: B1 VL with T28S, S31N, W32Y, R53T, T94F
notes: The phage clone was converted to human IgG and produced in Expi293 cells; also called mouse YKL-40 antibody 4E3-F2 (M3)
In turn, B4 yielded an EC50 in the assay with mouse YKL-40 [7] of 67 pM. Besides, the results for the Kd (in assay [4]; with mouse YKL-40 [8]) were 57000 pM and 67000 pM, respectively.

The record behind these values is patent US20220340649A1 (SENELIX, published 2022).
